Data published in IntAct's records for PubMed 17350572.

B1: Programmed cell death 6-interacting protein (Homo sapiens), Q8WUM4 (parent)
chain: MATFISVQLKKTSEVDLAKPLVKFIQQTYPSGGEEQAQYCRAAEELSKLRRAAVGRPLDKHEGALETLLRYYDQICSIEPKFPFSENQICLTFTWKDAFDKGSLFGGSVKLALASLGYEKSCVLFNCAALASQIAAEQNLDNDEGLKIAAKHYQFASGAFLHIKETVLSALSREPTVDISPDTVGTLSLIMLAQAQEVFFLKATRDKMKDAIIAKLANQAADYFGDAFKQCQYKDTLPKEVFPVLAAKHCIMQANAEYHQSILAKQQKKFGEEIARLQHAAELIKTVASRYDEYVNVKDFSDKINRALAAAKKDNDFIYHDRVPDLKDLDPIGKATLVKSTPVNVPISQKFTDLFEKMVPVSVQQSLAAYNQRKADLVNRSIAQMREATTLANGVLASLNLPAAIEDVSGDTVPQSILTKSRSVIEQGGIQTVDQLIKELPELLQRNREILDESLRLLDEEEATDNDLRAKFKERWQRTPSNELYKPLRAEGTNFRTVLDKAVQADGQVKECYQSHRDTIVLLCKPEPELNAAIPSANPAKTMQGSEVVNVLKSLLSNLDEVKKEREGLENDLKSVNFDMTSKFLTALAQDGVINEEALSVTELDRVYGGLTTKVQESLKKQEGLLKNIQVSHQEFSKMKQSNNEANLREEVLKNLATAYDNFVELVANLKEGTKFYNELTEILVRFQNKCSDIVFARKTERDELLKDLQQSIAREPSAPSIPTPAYQSSPAGGHAPTPPTPAPRTMPPTKPQPPARPPPPVLPANRAPSATAPSPVGAGTAAPAPSQTPGSAPPPQAQGPPYPTYPGYPGYCQMPMPMGYNPYAYGQYNMPYPPVYHQSPGQAPYPGPQQPSYPFPQPPQQSYYPQQ
partner: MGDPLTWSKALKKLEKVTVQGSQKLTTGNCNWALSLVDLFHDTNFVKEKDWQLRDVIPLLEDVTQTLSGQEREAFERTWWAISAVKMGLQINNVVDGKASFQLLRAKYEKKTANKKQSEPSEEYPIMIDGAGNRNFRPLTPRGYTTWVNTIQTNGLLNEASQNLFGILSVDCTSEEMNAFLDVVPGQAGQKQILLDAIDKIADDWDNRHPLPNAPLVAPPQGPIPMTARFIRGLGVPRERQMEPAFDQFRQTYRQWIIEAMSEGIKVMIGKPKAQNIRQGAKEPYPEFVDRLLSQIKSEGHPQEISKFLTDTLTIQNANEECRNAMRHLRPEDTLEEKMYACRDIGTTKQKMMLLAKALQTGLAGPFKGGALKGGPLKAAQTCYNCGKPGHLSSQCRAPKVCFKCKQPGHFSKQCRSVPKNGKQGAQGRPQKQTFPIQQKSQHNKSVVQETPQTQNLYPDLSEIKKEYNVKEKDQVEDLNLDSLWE
B2: Programmed cell death 6-interacting protein (Homo sapiens), Q8WUM4 (parent)
chain: B1 chain
B3: Programmed cell death 6-interacting protein (Homo sapiens), Q8WUM4 (parent)
chain: B1 chain
partner: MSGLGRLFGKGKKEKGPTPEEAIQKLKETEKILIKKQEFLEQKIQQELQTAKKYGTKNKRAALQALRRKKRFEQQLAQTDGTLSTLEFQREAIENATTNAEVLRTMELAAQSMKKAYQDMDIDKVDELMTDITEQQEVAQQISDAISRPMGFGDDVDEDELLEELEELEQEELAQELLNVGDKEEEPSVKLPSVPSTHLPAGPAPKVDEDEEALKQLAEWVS
B4: Gag polyprotein (Equine infectious anemia virus (isolate 1369) (EIAV)), P69730 (parent)
chain: B1 partner

Variants of: B1
Details: with gag_eiav9 gag

Row | Variant | effect of a mutation on the interaction
1 | F676D | disrupting interaction
2 | I683D | decreasing interaction
3 | V498D | decreasing interaction

Variants of: B2
Details: with ts101_human TSG101, Q99816
Chain of ts101_human TSG101, Q99816 (Q99816 whole entry): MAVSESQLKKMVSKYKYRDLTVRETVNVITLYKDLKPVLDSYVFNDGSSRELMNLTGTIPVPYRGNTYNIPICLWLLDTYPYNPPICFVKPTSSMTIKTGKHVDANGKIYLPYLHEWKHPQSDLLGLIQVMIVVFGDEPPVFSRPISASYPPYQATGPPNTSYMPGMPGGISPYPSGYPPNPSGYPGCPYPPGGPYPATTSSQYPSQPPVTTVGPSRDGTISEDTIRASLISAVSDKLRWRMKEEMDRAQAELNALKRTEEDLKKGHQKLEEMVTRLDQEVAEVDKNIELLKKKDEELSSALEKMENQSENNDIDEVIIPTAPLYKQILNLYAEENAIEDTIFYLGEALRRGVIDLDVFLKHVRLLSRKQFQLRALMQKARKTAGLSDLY

Row | Variant | effect of a mutation on the interaction
4 | P720L | disrupting interaction

Variants of: B2
Details: with gag_hv1b1 gag

Row | Variant | effect of a mutation on the interaction
5 | V498D | disrupting interaction
6 | F676D | disrupting interaction
7 | I683D | decreasing interaction

Variants of: B2
Details: with sh3g2_human SH3GL2, Q99962
Chain of sh3g2_human SH3GL2, Q99962 (Q99962 whole entry): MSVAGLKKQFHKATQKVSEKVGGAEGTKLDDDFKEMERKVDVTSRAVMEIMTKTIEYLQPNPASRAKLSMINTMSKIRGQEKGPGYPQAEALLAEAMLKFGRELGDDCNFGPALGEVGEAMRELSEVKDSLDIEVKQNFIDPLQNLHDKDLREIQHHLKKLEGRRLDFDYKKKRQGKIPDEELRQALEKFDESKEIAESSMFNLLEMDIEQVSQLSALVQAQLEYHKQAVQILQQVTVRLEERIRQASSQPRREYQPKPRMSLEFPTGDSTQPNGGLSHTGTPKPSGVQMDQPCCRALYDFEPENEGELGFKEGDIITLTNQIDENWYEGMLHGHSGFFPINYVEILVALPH

Row | Variant | effect of a mutation on the interaction
8 | R757A;P758A | decreasing interaction

Variants of: B3
Details: with chm4a_human CHMP4A

Row | Variant | effect of a mutation on the interaction
9 | I212D | disrupting interaction

Variants of: B4
Details: with pdc6i_human PDCD6IP

Row | Variant | effect of a mutation on the interaction
10 | MGDPLTWSKALKKLEKVTVQGSQKLTTGNCNWALSLVDLFHDTNFVKEKDWQLRDVIPLLEDVTQTLSGQEREAFERTWWAISAVKMGLQINNVVDGKASFQLLRAKYEKKTANKKQSEPSEEYPIMIDGAGNRNFRPLTPRGYTTWVNTIQTNGLLNEASQNLFGILSVDCTSEEMNAFLDVVPGQAGQKQILLDAIDKIADDWDNRHPLPNAPLVAPPQGPIPMTARFIRGLGVPRERQMEPAFDQFRQTYRQWIIEAMSEGIKVMIGKPKAQNIRQGAKEPYPEFVDRLLSQIKSEGHPQEISKFLTDTLTIQNANEECRNAMRHLRPEDTLEEKMYACRDIGTTKQKMMLLAKALQTGLAGPFKGGALKGGPLKAAQTCYNCGKPGHLSSQCRAPKVCFKCKQPGHFSKQCRSVPKNGKQGAQGRPQKQTFPIQQKSQHNKSVVQETPQTQNLSRDLSEIKKEYNVKEKDQVEDLNLDSLWE [Y458S;P459R] | decreasing interaction
